In PMC8076310:

T1: Fc-GDF15 WT (knob-Fc-(G4S)5-GDF15 paired with hole-Fc, wildtype GDF15) (human) (UniProt Q99988)
T1 sequence (Q99988 whole entry, looked up): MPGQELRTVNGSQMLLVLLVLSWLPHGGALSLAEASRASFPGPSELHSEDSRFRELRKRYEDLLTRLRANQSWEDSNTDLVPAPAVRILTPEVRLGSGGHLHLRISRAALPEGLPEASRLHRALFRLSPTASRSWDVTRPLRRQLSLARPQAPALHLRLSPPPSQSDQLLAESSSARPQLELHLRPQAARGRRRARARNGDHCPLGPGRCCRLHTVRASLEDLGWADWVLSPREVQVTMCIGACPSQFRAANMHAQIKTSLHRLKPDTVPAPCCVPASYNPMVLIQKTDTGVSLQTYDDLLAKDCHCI

T2: Fc-GDF15 WT (wildtype Fc-GDF15 control; knob-Fc-(G4S)5-GDF15 paired with hole-Fc) (human) (UniProt Q99988)
T2 sequence (Q99988 whole entry, looked up): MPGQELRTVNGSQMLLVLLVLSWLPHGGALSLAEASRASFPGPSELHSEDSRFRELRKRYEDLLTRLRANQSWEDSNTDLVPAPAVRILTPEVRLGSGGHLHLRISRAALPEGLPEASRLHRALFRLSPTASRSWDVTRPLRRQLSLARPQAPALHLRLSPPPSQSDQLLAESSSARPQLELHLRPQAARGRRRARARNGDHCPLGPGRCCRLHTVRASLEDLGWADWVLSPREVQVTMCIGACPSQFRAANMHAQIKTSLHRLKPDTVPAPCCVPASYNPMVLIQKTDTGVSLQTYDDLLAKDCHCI


Columns and labels:
[1] = molecular target: Fc-GDF15 Mutant 2 (A3N/N5T) (human); assay: SPR; Biacore T200, 37 °C; Fc-GDF15 captured on anti-human IgG on a CM4 chip; GFRAL injected as analyte, two-fold series 25-1.56 nM (human) or 100-6.25 nM (murine), 60 s association, 120 s dissociation; 1:1 Langmuir model; duplicate
[2] = molecular target: Fc-GDF15 Mutant 2A (A3N/N5T/L36H) (human); assay: as above
[3] = molecular target: Fc-GDF15 Mutant 2C (A3N/N5T/V98I) (human); assay: as above
[4] = molecular target: Fc-GDF15 Mutant 3 (R4N/G6T) (human); assay: as above
[5] = molecular target: Fc-GDF15 Mutant 3A (R4N/G6T/L36H) (human); assay: as above
[6] = molecular target: Fc-GDF15 Mutant 3B (R4N/G6T/L36R) (human); assay: as above
[7] = molecular target: Fc-GDF15 Mutant 3C (R4N/G6T/V98I) (human); assay: as above
[8] = molecular target: T1, Fc-GDF15 WT (knob-Fc-(G4S)5-GDF15 paired with hole-Fc, wildtype GDF15) (human); assay: as above
[9] = molecular target: Fc-GDF15 Mutant 2 (A3N/N5T) (human); assay: SPR; Biacore T200, 37 °C; anti-human IgG amine-coupled on a CM4 chip captures Fc-GDF15; GFRAL ECD injected in two-fold dilutions (human 25 to 1.56 nM, murine 100 to 6.25 nM), 60 s association, 120 s dissociation; double referencing, 1:1 Langmuir model; duplicate
[10] = molecular target: Fc-GDF15 Mutant 2A (A3N/N5T, L36H) (human); assay: as above
[11] = molecular target: Fc-GDF15 Mutant 2C (A3N/N5T/V98I) (human); assay: as above
[12] = molecular target: Fc-GDF15 Mutant 3 (R4N/G6T) (human); assay: as above
[13] = molecular target: Fc-GDF15 Mutant 3A (R4N/G6T, L36H) (human); assay: as above
[14] = molecular target: Fc-GDF15 Mutant 3B (R4N/G6T, L36R) (human); assay: as above
[15] = molecular target: Fc-GDF15 Mutant 3C (R4N/G6T, V98I) (human); assay: as above
[16] = molecular target: T2, Fc-GDF15 WT (wildtype Fc-GDF15 control; knob-Fc-(G4S)5-GDF15 paired with hole-Fc) (human); assay: as above

Binder	koff [1]	kon [1]	koff [2]	kon [2]	koff [3]	kon [3]	koff [4]	kon [4]	koff [5]	kon [5]	koff [6]	kon [6]	koff [7]	kon [7]	koff [8]	kon [8]	Kd [9]	Kd [10]	Kd [11]	Kd [12]	other results
Soluble human GFRAL extracellular domain (ECD) (receptor) SQTNNCTYLREQCLRDANGCKHAWRVMEDACNDSDPGDPCKMRNSSYCNLSIQYLVESNFQFKECLCTDDFYCTVNKLLGKKCINKSDNVKEDKFKWNLTTRSHHGFKGMWSCLEVAEACVGDVVCNAQLASYLKACSANGNPCDLKQCQAAIRFFYQNIPFNIAQMLAFCDCAQSDIPCQQSKEALHSKTCAVNMVPPPTCLSVIRSCQNDELCRRHYRTFQSKCWQRVTRKCHEDENCISTLSKQDLTCSGSDDCKAAYIDILGTVLQVQCTCRTITQSEESLCKIFQHMLHRKSCFNYPTLSNVKGMALYTRKHANKITLTGFHSPFNGE																	10 nM	6.03 nM	5.52 nM	11.2 nM	Kd [13]: 6.09 nM; Kd [14]: 3.68 nM; Kd [15]: 5.44 nM; Kd [16]: 11 nM
Soluble mouse GFRAL extracellular domain (ECD) (receptor) SQTNDCAHLIQKCLIDANGCEQSWRSMEDTCLTPGDSCKINNSLHCNLSIQALVEKNFQFKECLCMDDLHCTVNKLFGKKCTNKTDNMEKDNKDKWNLTTTPFYHGFKQMQSCLEVTEACVGDVVCNAQLALYLKACSANGNLCDVKHCQAAIRFFYQNMPFNTAQMLAFCDCAQSDIPCQQSKETLHSKPCALNIVPPPTCLSVIHTCRNDELCRTHYRTFQTECWPHITGKCHEDETCISMLGKQDLTCSGSESCRAAFLGTFGTVLQVPCACRGVTQAEEHVCMIFQHMLHSKSCFNYPTPNVKDISSYEKKNSKEITLTGFNSFFNGE																	245 nM	186 nM	95.8 nM	300 nM	Kd [13]: 178 nM; Kd [14]: 82.8 nM; Kd [15]: 124 nM; Kd [16]: 230 nM

Further lines, with some results ahead:

koff [1]	kon [1]	koff [2]	kon [2]	koff [3]	kon [3]	koff [4]	kon [4]	koff [5]	kon [5]	koff [6]	kon [6]	koff [7]	kon [7]	koff [8]	kon [8]	Kd [9]	Kd [10]	Kd [11]	Kd [12]	Binder	other results
0.1 s⁻¹	1e+07 M⁻¹ s⁻¹	0.039 s⁻¹	6.47e+06 M⁻¹ s⁻¹	0.0574 s⁻¹	1.03e+07 M⁻¹ s⁻¹	0.113 s⁻¹	1e+07 M⁻¹ s⁻¹	0.0402 s⁻¹	6.61e+06 M⁻¹ s⁻¹	0.0283 s⁻¹	7.72e+06 M⁻¹ s⁻¹	0.0571 s⁻¹	1.05e+07 M⁻¹ s⁻¹	0.12 s⁻¹	1.07e+07 M⁻¹ s⁻¹					human GFRAL extracellular domain (ECD), residues 19-351 (domain or fragment) SQTNNCTYLREQCLRDANGCKHAWRVMEDACNDSDPGDPCKMRNSSYCNLSIQYLVESNFQFKECLCTDDFYCTVNKLLGKKCINKSDNVKEDKFKWNLTTRSHHGFKGMWSCLEVAEACVGDVVCNAQLASYLKACSANGNPCDLKQCQAAIRFFYQNIPFNIAQMLAFCDCAQSDIPCQQSKEALHSKTCAVNMVPPPTCLSVIRSCQNDELCRRHYRTFQSKCWQRVTRKCHEDENCISTLSKQDLTCSGSDDCKAAYIDILGTVLQVQCTCRTITQSEESLCKIFQHMLHRKSCFNYPTLSNVKGMALYTRKHANKITLTGFHSPFNGE	
0.372 s⁻¹	1.52e+06 M⁻¹ s⁻¹	0.16 s⁻¹	865000 M⁻¹ s⁻¹	0.179 s⁻¹	1.88e+06 M⁻¹ s⁻¹	0.474 s⁻¹	1.59e+06 M⁻¹ s⁻¹	0.2 s⁻¹	1.13e+06 M⁻¹ s⁻¹	0.105 s⁻¹	1.26e+06 M⁻¹ s⁻¹	0.188 s⁻¹	1.69e+06 M⁻¹ s⁻¹	0.364 s⁻¹	1.61e+06 M⁻¹ s⁻¹					mouse GFRAL extracellular domain (ECD), residues 19-350 (domain or fragment) SQTNDCAHLIQKCLIDANGCEQSWRSMEDTCLTPGDSCKINNSLHCNLSIQALVEKNFQFKECLCMDDLHCTVNKLFGKKCTNKTDNMEKDNKDKWNLTTTPFYHGFKQMQSCLEVTEACVGDVVCNAQLALYLKACSANGNLCDVKHCQAAIRFFYQNMPFNTAQMLAFCDCAQSDIPCQQSKETLHSKPCALNIVPPPTCLSVIHTCRNDELCRTHYRTFQTECWPHITGKCHEDETCISMLGKQDLTCSGSESCRAAFLGTFGTVLQVPCACRGVTQAEEHVCMIFQHMLHSKSCFNYPTPNVKDISSYEKKNSKEITLTGFNSFFNGE	
